Assay results: patent publication US10087260B2, “Anti-HER2 antibody and conjugate thereof” (REMEGEN, LTD., priority 2013, dated 2018)
“Also recorded” adds a separate entry of the source. Square brackets hold non-standard residues; d marks the D form. Peptide text beside a SMILES is read from it. * marks the point of attachment. Dolaproine = CO[C@@H]([C@@H]1CCCN1)[C@@H](C)C(=O)O; Dil = CC[C@H](C)[C@H](NC)[C@@H](CC(=O)O)OC; X1 = C[C@@H](N*)[C@@H](O)c1ccccc1; NMeV = CN[C@H](C(=O)O)C(C)C

Tests used:
[1] = test system: NCI-N87 human gastric cancer; assay: NCI-N87 human gastric cancer nude mouse subcutaneous transplantation tumor model; format: in vivo; conditions: 200 mg/kg, dosing once per week, for 21 days
Protocol: [Worded in the source for another cell line; this cell line is reported under the same test.] (§1) SPF-level BALB/c nude mice were inoculated subcutaneously with a certain amount of BT-474/L1.9 tumor cells, and after the tumor growing to 100-200 mm3, the animals were randomly grouped. […] The tumor volume was measured 2 times a week. […] The data were recorded. The tumor volume and the tumor-inhibition rate of each tumor-bearing mouse were calculated at different observation time points.

[2] = test system: BT-474/L1.9 human breast cancer; assay: Herceptin- and Lapatinib-resistant BT-474/L1.9 nude mouse subcutaneous transplantation tumor model; format: in vivo
Protocol: as §1

[3] = Toxicity in SD rat, single intravenous infusion; format: in vivo
Protocol: SPF-level SD rats (the certificate No. is SCXK (jing)2012-0001) purchased from Beijing Vital River Laboratories Animal Technology Co, Ltd. were randomly divided into 7 groups according to gender, in which there were 10 rats in a group with half male and half female. These 7 groups included physiological saline negative control group, 0.48 mg/kg MMAE control group, 40 mg/kg RC48 naked antibody control group and series of RC48-vc-MMAE dose groups, in which the rats were dosed via tail vein infusion, and the experimental observation period was 21 days. The body weights were weighted at D1 (pre-dosing), D8, D15 and D22. After the observation period, the animals were euthanized and performed a general pathological anatomical observation, and the abnormal tissues or organs observed by the general anatomical observation were subjected to a histological examination.

[4] = test system: chronic non-Hodgkin's lymphocytoma (NHL); conditions: cited from earlier work
[5] = test system: recurrent or refractory Hodgkin's lymphoma; conditions: cited from earlier work
[6] = target: T1, HER2 on BT474 cell surface (Homo sapiens, UniProt P04626); assay: Flow cytometry binding curve with HER2 on BT474 cell surface; conditions: BT474 cells, antibody titration, read-out: Binding affinity Kd
T1 construct: HER2 which was endogenously expressed in human breast cancer cells; endogenous in cells; host or cells: BT474 human breast cancer cells
Protocol: (§2) After 2 times of thoroughly washing with 4 ml cold PBS, the antibodies binding with the cell surface were detected by R-PE-coupled goat anti-human IgG Fc specific second antibody (15 μl, 25 μg/mL), and then analyzed by flow cytometer (BD FACSCalibur).

[7] = test system: BT474 human breast cancer tumor; format: in vivo; conditions: 10 mg/kg, three administrations, 37 days after dosing
Protocol: Five millions of BT474 cells were suspended in PBS, and inoculated to the armpit of BALB/c nude mouse (provided by Shanghai Slac Laboratory Animal Co. Ltd., with the certificate No. 2007000540582 and license No. SCXK(hu)2012-0002). After the tumor was formed, the tumor tissue which grew vigorously was taken and cut into about 1.5 mm^3, and inoculated subcutaneously to the right-side armpit of nude mouse under sterile conditions. The diameter of the nude mouse transplantation tumor was measured by vernier caliper. The animals were grouped randomly until the tumor grew up to 100˜300 mm^3.

[8] = test system: BT474 human breast cancer transplantation tumor; assay: Tumor inhibition of RC48, BT474 human breast cancer transplantation tumor model; format: in vivo, nude mouse; conditions: 10 mg/kg, administered three times
Source text: Human breast cancer BT474 nude mouse transplantation tumor model was established by inoculating BT474 cells into nude mouse subcutaneously. After growing continuously in vivo for 3 generations, the tumor tissue which grew vigorously was taken and cut into about 1.5 mm3, and inoculated subcutaneously to right-side armpit of nude mouse (provided by Shanghai Slac Laboratory Animal Co. Ltd., with the certificate No. 2007000540582 and license No. SCXK(hu)2012-0002) under sterile conditions. The diameter of the nude mouse transplantation tumor was measured by vernier caliper. The animals were grouped randomly until the tumor grew up to 100˜300 mm3.

EGFR = EGFR (Homo sapiens, UniProt P00533); assay: Antigen binding specificity ELISA; conditions: 20 ng antigen per well
Protocol: [Worded in the source for another target; used here, by the source, with some conditions changed.] (§3) HER2-ECD as described above was used as the antigen for immunizing the mouse and monoclonal antibody generation. Immunization, hybridoma cells fusion and primary screen were conducted according to standard procedures (reference: WHO Technical Report Series, No. 822, 1992 Annex 3). Four Balb/c mice (commercially obtained from Shanghai Slac Laboratory Animal Co. Ltd.) were immunized with equal volume of well-blended 0.25 ml HER2-ECD protein (50-100 μg) and 0.25 ml Freund's complete adjuvant (Difco Lab). Two weeks later, the second injection was carried out with Freund's incomplete adjuvant (Difco Lab) in which the amount of antigen was 25-50 μg/0.5 ml/mouse. Three weeks later, the third injection was carried out in which the amount was the same with that in the second injection. Ten days after the third injection the blood was drawn. The mice serum were detected by enzyme-linked immunosorbent assay (ELISA), and the spleens of the two mice with highest anti-HER2 antibody titer in serum were taken, which were then fused with the myeloma cell P3X63Ag8 (ATCC CRL-1580). The fused cells were diluted onto ten 96-well plates, and the preliminary screen was carried out through ELISA method depending on the binding capacity with HER2-ECD. In a classical ELISA assay, the Nunc Maxisord 96-well plate was coated with HER2-ECD (0.2-1 μg/ml), and then incubated with gradient diluted mouse serum or hybridoma supernatant (100 μL). Murine-derived anti-HER2 antibody was detected by the goat F(ab′)2 anti-murine IgG Fc specific second antibody coupled with horse radish peroxidase (Invitrogen Inc.).

HER3 = HER3 (Homo sapiens, UniProt P21860); assay: Antigen binding specificity ELISA; conditions: 20 ng antigen per well
Protocol: [Worded in the source for another target; used here, by the source, with some conditions changed.] as §3

HER4 = HER4 (Homo sapiens, UniProt Q15303); assay: Antigen binding specificity ELISA; conditions: 20 ng antigen per well
Protocol: [Worded in the source for another target; used here, by the source, with some conditions changed.] as §3

HER2 = HER2 (Homo sapiens, UniProt P04626); assay: Antigen binding specificity ELISA; conditions: 20 ng antigen per well
Protocol: as §3

HER2-ECD = target: T2, HER2-ECD (Homo sapiens, UniProt P04626); assay: ELISA HER2-ECD binding affinity constant of antibodies; conditions: ELISA on coated HER2-ECD; average of 3 independent assays
T2 construct: made in house; host or cells: HEK293
Protocol: as §3, with “The fused cells were diluted onto ten 96-well plates, and the preliminary screen was carried out through ELISA method depending on the binding capacity with HER2-ECD. In a classical ELISA assay, the Nunc Maxisord 96-well plate was coated with HER2-ECD (0.2-1 μg/ml), and then incubated with gradient diluted mouse serum or hybridoma supernatant (100 μL).” left out

MDA-MBA468 = assay: Flow cytometry binding with HER2 negative cells; format: cell-based, human; conditions: 6 μg antibody
Protocol: as §2

[9] = test system: HER2+ cells SK-BR-3, BT474; assay: Flow cytometry binding with HER2 positive breast cancer cells; format: cell-based, human; conditions: 6 μg antibody, SK-BR-3 and BT474
Protocol: as §2

Sequence of HER4 (Q15303 26-1308, species assumed): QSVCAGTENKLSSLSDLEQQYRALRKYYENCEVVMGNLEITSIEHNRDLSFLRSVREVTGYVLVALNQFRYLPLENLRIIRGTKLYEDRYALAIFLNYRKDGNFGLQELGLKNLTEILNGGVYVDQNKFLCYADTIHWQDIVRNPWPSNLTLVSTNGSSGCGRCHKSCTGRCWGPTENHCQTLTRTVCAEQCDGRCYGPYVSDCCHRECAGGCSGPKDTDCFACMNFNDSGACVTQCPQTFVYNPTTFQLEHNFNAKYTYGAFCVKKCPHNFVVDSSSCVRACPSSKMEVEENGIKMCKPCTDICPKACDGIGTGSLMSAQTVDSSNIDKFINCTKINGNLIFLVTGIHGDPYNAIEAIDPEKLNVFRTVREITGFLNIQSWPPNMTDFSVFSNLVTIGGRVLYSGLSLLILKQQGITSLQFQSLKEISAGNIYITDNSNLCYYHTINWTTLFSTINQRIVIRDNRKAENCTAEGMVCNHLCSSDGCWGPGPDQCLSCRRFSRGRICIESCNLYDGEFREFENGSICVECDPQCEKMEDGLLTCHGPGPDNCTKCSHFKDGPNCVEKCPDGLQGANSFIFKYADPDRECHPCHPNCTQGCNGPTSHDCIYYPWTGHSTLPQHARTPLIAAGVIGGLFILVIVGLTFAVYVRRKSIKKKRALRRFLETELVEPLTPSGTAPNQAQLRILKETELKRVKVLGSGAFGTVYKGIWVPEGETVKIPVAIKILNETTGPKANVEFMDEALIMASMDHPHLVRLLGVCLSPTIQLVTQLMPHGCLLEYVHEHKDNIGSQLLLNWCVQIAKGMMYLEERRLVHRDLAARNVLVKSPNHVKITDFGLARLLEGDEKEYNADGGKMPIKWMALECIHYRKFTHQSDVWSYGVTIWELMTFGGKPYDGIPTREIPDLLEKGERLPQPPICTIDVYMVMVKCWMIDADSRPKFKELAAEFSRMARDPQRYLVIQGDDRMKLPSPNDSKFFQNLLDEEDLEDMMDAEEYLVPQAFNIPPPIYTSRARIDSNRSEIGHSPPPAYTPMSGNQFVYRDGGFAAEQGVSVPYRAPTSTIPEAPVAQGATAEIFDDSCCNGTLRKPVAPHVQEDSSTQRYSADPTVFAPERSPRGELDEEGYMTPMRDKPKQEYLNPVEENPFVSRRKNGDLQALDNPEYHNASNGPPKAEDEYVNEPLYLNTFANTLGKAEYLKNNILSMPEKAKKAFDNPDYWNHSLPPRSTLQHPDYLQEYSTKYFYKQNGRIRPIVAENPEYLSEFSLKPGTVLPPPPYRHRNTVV

Molecule: CS(=O)(=O)CCNCc1ccc(-c2ccc3ncnc(Nc4ccc(OCc5cccc(F)c5)c(Cl)c4)c3c2)o1 [Lapatinib]
- tumor-inhibition rate [1]: 78%
- tumor-inhibition rate ([2]; 200 mg/kg, dosing everyday): 45%

Molecule: CC[C@H](C)[C@@H]([C@@H](CC(=O)N1CCC[C@H]1[C@H](OC)[C@@H](C)C(=O)N[C@H](C)[C@@H](O)c1ccccc1)OC)N(C)C(=O)[C@@H](NC(=O)[C@@H](NC)C(C)C)C(C)C [MMAE, Monomethyl auristatin E, reference compound] (H-[NMeV]V[Dil][Dolaproine]-X1)
- animals found dead during the experiment ([3]; 0.48 mg/kg MMAE control group, single tail vein infusion, 21 days): 9/10

Molecule: Rituxan: monoclonal antibody drug against lymphocytoma such as NHL
- total response rate ([4]; Phase II clinical study, NHL, used alone): 6%
- effective rate ([4]; in combination with standard chemotherapy, chronic lymphocytoma): up to 90%

Molecule: T-DM1
- tumor-inhibition rate ([2]; 5 mg/kg, once per week, totally 2 times): 58%

Molecule: brentuximab vedotin
- patients achieving partial response ([5]; Phase II, 102 patients): 40%
- overall response rate ([5]; median treatment course 6.7 months): 73%
- complete response rate ([5]; median treatment course 20.5 months): 34%

B1: RC48: humanized anti-HER2 antibody RC48, derived from mRC48 antibody by humanized engineering; human IgG1κ (antibody, chains of the INN, looked up, V domains shown)
VH: EVQLVQSGAEVKKPGATVKISCKVSGYTFTDYYIHWVQQAPGKGLEWMGRVNPDHGDSYYNQKFKDKATITADKSTDTAYMELSSLRSEDTAVYFCARNYLFDHWGQGTLVTVSS
VL: DIQMTQSPSSVSASVGDRVTITCKASQDVGTAVAWYQQKPGKAPKLLIYWASIRHTGVPSRFSGSGSGTDFTLTISSLQPEDFATYYCHQFATYTFGGGTKVEIK
- Kd [6]: 4 nM
- tumor volume as % of the control group [7]: 83%
- tumor-inhibitory effect on BT474 tumors [8]: inhibited; also recorded: significantly better tumor-inhibitory effect
- binding capacity with EGFR (EGFR): nearly had no binding capacity; also recorded: not with EGFR, HER3 and HER4
- binding capacity with HER3 (HER3): nearly had no binding capacity; also recorded: not with EGFR, HER3 and HER4
- binding capacity with HER4 (HER4): nearly had no binding capacity; also recorded: not with EGFR, HER3 and HER4
- binding capacity with HER2 (HER2): strong binding capacity; also recorded: only shows specific binding affinity with HER2
- Kd (HER2-ECD): 0.044 nM
- binding with HER2 negative cells (MDA-MBA468): no binding
- toxicity response symptom ([3]; 40 mg/kg, single intravenous infusion): no evident toxicity response symptom
- maximal tolerant dose of rat ([3]; single intravenous infusion): ≥ 40 mg/kg
- binding with HER2 positive cells [9]: strong binding; also recorded: higher binding affinity
